Numbering of substitutions follows the chain as printed. Read-outs that look alike come from different tables or passages of the source. Blank lines part the entries; values can stand above or below the binder they belong to.
What was measured:
[1] = molecular target: T1, human BSG2 (basigin isoform 2) on the cell surface (human, UniProt P35613 140-385); assay: cell-based ECL (MSD) binding on whole cells expressing human BSG2
T1 construct: Presented on stably transfected BAF3 cells or endogenously on human tumor cell lines (HepG2, MiaPaCa-2, DoHH-2); also called hBSG2; CD147
T1 sequence: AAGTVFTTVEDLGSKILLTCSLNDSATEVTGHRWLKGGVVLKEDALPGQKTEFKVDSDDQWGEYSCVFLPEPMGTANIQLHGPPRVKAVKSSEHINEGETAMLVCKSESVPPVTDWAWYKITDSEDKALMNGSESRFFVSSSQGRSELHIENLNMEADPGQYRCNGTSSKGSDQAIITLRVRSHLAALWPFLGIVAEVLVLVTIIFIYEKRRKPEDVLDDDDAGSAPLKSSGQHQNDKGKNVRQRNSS

[2] = molecular target: T1, human BSG2 (basigin isoform 2) on the …; assay: receptor binding assay, Eu-labeled antibody on cells expressing human BSG2
Description: (§1) Cell lines expressing BSG2 were harvested and washed once in assay buffer (PBS, 0.1% BSA, 0.02% Na Azide, 10 mM EDTA) and resuspended to 5×10⁶ cells per mL. Serial 1:2 dilutions of ⁺³Eu-labeled anti-BSG2 antibody stock in assay buffer were made for final concentrations ranging from 1.6×10⁻⁸-7.7×10⁻¹² M, and a 4 mg/mL solution of unlabeled anti-BSG2 antibody was also prepared. To 96 well round bottom plates, 25 μl of ⁺³Eu-labeled antibody dilutions were added to 25 μl buffer (total counts), or 25 μl of unlabeled antibody were added to 25 μl buffer (background counts). 50 μl of cells at 2.5×10⁵ cells per well were then added to all samples, mixed gently, and incubated on ice for 1 hour. Cell bound antibody was then separated from unbound antibody by transferring 20 μL of the reaction mixture to Acrowell 96 well filter plates (Pall PN 5020), centrifuged for 5 min (2200 rpm), washed 3× with 150 μL cold assay buffer, and centrifuged for 5 min. Signal was determined by incubating samples with 150 μL/well of enhancement buffer and read using Envision. The specific counts were determined by subtracting the background counts (cells+labeled antibody+excess cold antibody) from the corresponding total counts (cells+labeled antibody) for each antibody concentration. The labeled antibody concentration versus total counts was analyzed using Graphpad Prism 4 to calculate Kd and Bmax values.
BSG2 antibody binding activities against whole cells expressing human or cynomolgus monkey BSG2 were assessed by ECL using MSD technology (described in Example 1.3) and the receptor binding assay (described in Example 1.4) and are shown in Table 11.

[3] = molecular target: T2, purified recombinant human BSG2 extracellular domain (human, UniProt P35613 22-325); assay: SPR (Biacore), mAb captured by anti-mouse Fc, BSG2 ECD injected, 25 C
T2 construct: also called Human BSG2 ECD
T2 sequence: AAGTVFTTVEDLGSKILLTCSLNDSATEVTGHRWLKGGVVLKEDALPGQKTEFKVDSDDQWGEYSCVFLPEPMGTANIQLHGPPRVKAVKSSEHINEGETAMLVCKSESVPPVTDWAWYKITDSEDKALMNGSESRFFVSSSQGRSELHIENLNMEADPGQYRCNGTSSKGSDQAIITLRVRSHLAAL
Description: Binding of BSG2 antibodies to a purified recombinant BSG2 extracellular domain (ECD) was determined by surface plasmon resonance-based measurements with a Biacore® instrument (either a Biacore 2000, Biacore 3000, or Biacore T100; GE Healthcare, Piscataway, N.J., US). The assay format for mAb affinity analysis was Fc-based capture via immobilized anti-Fc IgG. A standard amine coupling protocol was employed to immobilize Fc-specific IgG via primary amines to the carboxy-methyl (CM) dextran surface of CMS sensorchips. For the study of mouse anti-human BSG2 mAbs, anti-mouse Fc was used as the immobilized capture reagent. An automated protocol, available on the Biacore 2000, was used to immobilize 8000-10000RU of capture reagent in all 4 flowcells of the sensorchip. Binding was recorded as a function of time and kinetic rate constants were calculated. In this assay, on-rates as fast as 10⁷M⁻¹ s⁻¹ and off-rates as slow as 10⁻⁵ s⁻¹ can be measured.
Briefly, the CM-dextran surfaces were activated by freshly prepared 1:1 […] 3-(N,N-dimethylamino)propyl-N-ethylcarbodiimide (EDC). Then the anti-Fc IgG capture reagent (20 μg/ml in 10 mM sodium acetate, pH 4.5) was applied to the surface followed by deactivation of the surface and blocking of the residual reactive sites with 1M ethanolamine (pH 8.5). The running buffer employed was PBS-PB [1×PBS (Sigma P3813), pH 7.4, 0.005% P20 surfactant, 0.1 mg/ml BSA (Sigma-A7906)] and the assay temperature was 25° C. All reagents were diluted into running buffer to the specified concentrations. Each experimental cycle consisted of the following steps: (1) anti-BSG2 mAbs at 0.5 to 1 μg/ml were captured in flowcells 2, 3 or 4 to a level of 100-120RU. All measurements were referenced against flowcell 1 which had no captured anti-BSG2 mAb; (2) human BSG2 ECD was injected through all 4 flowcells, 240 μl at 80 μl/min. After the antigen injection, dissociation was monitored for 600 seconds at 80 μl/min; and (3) the anti-Fc capture surface was regenerated with 10 mM glycine, pH 1.5.
The BSG2 antibody binding affinities were determined by the BIACORE technology as described in Example 1.2. Table 10 represents the antibody binding kinetics against human and cynomolgus monkey BSG2 extracellular domain (ECD).

[4] = molecular target: T1, human BSG2 (basigin isoform 2) on the …; assay: cell-based or functional assay
[5] = molecular target: T1, human BSG2 (basigin isoform 2) on the …; assay: flow cytometry (FACS) on BAF3 cells expressing human BSG2
Description: (§2) Stable cell lines overexpressing cell-surface BSG2 or human tumor cell lines were harvested from tissue culture flasks, washed three times and resuspended in phosphate buffered saline (PBS) containing 1% bovine serum albumin and 1 mM CaCl₂ (FACS buffer). 5×10⁵ cells were incubated with antibodies at various concentrations in FACS buffer for 60 minutes on ice. Cells were washed twice and the bound murine monoclonal antibody was detected with a goat Fab′2 anti-mouse IgM+IgG+IgA (H+L) R-phycoerythrin-conjugated antibody (Southern Biotechnology Associates, Inc., Birmingham, Ala., Catalog No. 1012-08) diluted 1:500. Following incubation on ice (4° C., 60 minutes), cells were washed three times and resuspended in FACS buffer. Fluorescence was measured using a Becton Dickinson FACSCalibur-HTS (Becton Dickinson, San Jose, Calif., US). Data were analyzed using Graphpad Prism software and EC₅₀ values were reported as the concentration of antibody to achieve 50% of maximal BSG2 antibodies binding to BSG2 expressing cells.

[6] = molecular target: T1, human BSG2 (basigin isoform 2) on the …; assay: flow cytometry (FACS) on HepG2 hepatocellular carcinoma cells (cell-surface BSG2)
Description: as §2

[7] = molecular target: T1, human BSG2 (basigin isoform 2) on the …; assay: cell-based ECL (MSD) binding on cells expressing human BSG2
Description: Cells were plated at 25,000 cells/well in 25 μl PBS using 96 well MSD high binding plates (MSD, catalogue no. L11XB-3), and incubated at 37° C. for 1 hour. 25 μl/well of blocking solution (30% serum in PBS) was added to the plates for 30 minutes at room temperature with mild agitation. Plates were then incubated with 25 μl/well of BSG2 antibodies (10 μg/ml) diluted in assay buffer (10% serum in PBS) for 1 hour at room temperature with mild agitation, and then washed 3× with PBS. Goat anti-mouse or anti-human IgG sulfotag was added at 1 μg/ml for 1 hour with mild agitation, and plates were washed 3× with PBS. After the final wash, plates were incubated with 2×MSD surfactant-free read buffer (catalogue no. R92TD-2) and the signal was detected on a MSD SECTOR Imager 6000. Data were analyzed using Graphpad Prism software and EC₅₀ values were reported.
Select humanized variants were also tested for their functionality using ADCC and cell viability assays (described in Examples 1.6 and 1.7).

[8] = molecular target: T1, human BSG2 (basigin isoform 2) on the …; assay: cell-based or functional assay; remark: listed apart in the source
[9] = molecular target: T1, human BSG2 (basigin isoform 2) on the …; assay: receptor binding assay, Eu-labeled antibody on cells expressing human BSG2; remark: listed apart in the source
Description: as §1

EC50 [1]: 0.3 nM
Kd [2]: 0.15 nM
Kd [3]: 47 nM
koff [3]: 0.019 s⁻¹
kon [3]: 410000 M⁻¹ s⁻¹
EC50 [5]: 0.14 nM
EC50 [6]: 0.17 nM
B1: mouse anti-human BSG2 monoclonal antibody SZ66-2D2-2A1 (antibody, mouse IgG2a, kappa, V domains shown)
VH: QVQLQQPGAEIVRPGASVKLSCKASGYTFTDYWMNWVKLRPGQGLEWIGIIDPSDSYASYNQKFKGKATLTVDESSSTAYMQLSSLTSEDSAVYYCARKSYYGGNYYYAMDYWGQGTSVTVSS
VL: EIVLTQSPALMAASPGEKVTITCSVSSSINSINLHWYRQKSETSPKPWIYGTSNLASGVPVRFSGSGSGTSYSLTISSMEAEDAATYYCQQWSSYPLTFGAGTKLELKR
notes: Hybridoma antibody, mouse IgG2a/kappa
CDC assay (% killing at 10 µg/ml Ab), MiaPaCa-2 pancreatic cancer cells [4]: 84 % killing

EC50 [7]: > 100 nM
B4: humanized 6A11-3A3 antibody h3A3-11 (VH.1/VL.1b) (antibody, V domains shown)
VH: EVQLVESGGGLVQPGGSLRLSCAASGFTFSNFWMDWVRQAPGKGLEWVGGIRLKSYNYATHYAESVKGRFTISRDDSKNTAYLQMNSLRAEDTAVYYCTRWDGAYWGQGTLVTVSS
VL: DIVMTQSPSSLSASVGDRVTITCKASQDVSTDVAWYQQKPGKSPKLLIYSASYRYTGVPSRFSGSGSGTDFTLTISSLQPEDIATYYCQQHYSTPFTFGQGTKLEIK

EC50 [7]: 1.35 nM
B5: humanized 6A11-3A3 antibody h3A3-9 (VH.1a/VL.1a) (antibody, V domains shown)
VH: B4 VH with V48I, G49A, N79S, A81V, R100D
VL: B4 VL with V3Q

ADCC assay (EC50 ng/ml of % specific lysis), HepG2 hepatocellular [8]: 9.3 ng/mL
EC50 [7]: 0.96 nM
Kd [9]: 2.3 nM
B6: humanized 6A11-3A3 antibody h3A3-12 (VH.1a/VL.1b) (antibody, IgG1, V domains shown)
VH: B4 VH with V48I, G49A, N79S, A81V, R100D
VL: B4 VL
notes: IgG1
Cross-linking assay (% viability, Cmax: 125 ng/ml), MiaPaCa pancreatic cells [8]: 48.8 % viability

More lines, now with the values behind:

B2: humanized 6A11-3A3 antibody h3A3-8 (VH.1/VL.1a) (antibody, V domains shown)
VH: B4 VH
VL: B4 VL with V3Q
EC50 [7]: 6.9 nM

B3: humanized 6A11-3A3 antibody h3A3-6 (VH.1a/VL.1) (antibody, IgG1, V domains shown)
VH: B4 VH with V48I, G49A, N79S, A81V, R100D
VL: B4 VL with V3Q, S43A
notes: IgG1
ADCC assay (EC50 ng/ml of % specific lysis), HepG2 hepatocellular [8]: 16.4 ng/mL
Cross-linking assay (% viability, Cmax: 125 ng/ml), MiaPaCa pancreatic cells [8]: 47.9 % viability
EC50 [7]: 2.05 nM
Kd [9]: 5.2 nM

B7: humanized 6A11-3A3 antibody h3A3-5 (VH.1/VL.1) (antibody, V domains shown)
VH: B4 VH
VL: B4 VL with V3Q, S43A
EC50 [7]: > 100 nM

B8: mouse anti-human BSG2 antibody 1F4-2C1 with mouse IgG2a isotype (antibody, V domains shown)
VH: EVKLEESGGGLVQPGGSMKLSCVASGFTFSNFWMDWVRQSPEKGLEWVAEIRLKSTNYATHYAESVKGRFTISRDDSKSSVYLQMNNLRAEDTGIYYCTATSTGYWGQGTTLTVSS
VL: SIVMTQSPKILLVSAGDRVTITCKASQSVSNDVAWYQQKPGQSPKLLIYYASNRYTGVPDRFTGSGYGTDFTFTISTVQAEDLAVYFCQQDYSSPYTFGGGTKLEIK
CDC assay (% killing at 10 µg/ml Ab), MiaPaCa-2 pancreatic cancer cells [4]: 87 % killing

B9: chimeric antibody 6A11-3A3 (human IgG1 constant regions) (antibody, V domains shown)
VH: EVKLEESGGGLVQPGGSMKLSCVASGFTFSNFWMDWVRQSPEKGLEWIAGIRLKSYNYATHYAESVKGRFTISRDDSKSSVYLQMNNLRAEDTGIYYCTDWDGAYWGQGTLVTVSA
VL: DIVMTQSHKFMSTSVGDRVSITCKASQDVSTDVAWYQQKPGQSPKLLIYSASYRYTGVPDRFTGSGSGTDFTFTISSVQAEDLAVYYCQQHYSTPFTFGSGTKLEIK
ADCC assay (EC50 ng/ml of % specific lysis), HepG2 hepatocellular [8]: 12.5 ng/mL
Cross-linking assay (% viability, Cmax: 125 ng/ml), MiaPaCa pancreatic cells [8]: 55.5 % viability
ADCC assay (EC50 ng/ml of % specific lysis), HepG2 hepatocellular cancer cells [4]: 7.3 ng/mL

— patent US20110223176A1 (AbbVie / Abbott, published 2011)
